The source of these data is publication PMC7596504, “Molecular mechanism of the MORC4 ATPase activation” (Nature Communications, 2020).

The test system of experiment [1] is MORC4. Nature of the experiment: ATPase activity assay (EnzChek Phosphate Assay Kit). Format: biochemical, human. Also noted: Rate of ATP hydrolysis: unit not given here. The protocol:
(§1) To determine whether MORC4 is catalytically active, we produced the ATPase domain of human MORC4 and examined its ability to hydrolyze ATP in enzymatic assays (Fig. 1a–c). Following incubation of the ATPase domain with ATP, 2-amino-6-mercapto-7-methylpurine ribonucleoside and nucleoside phosphorylase, the release of inorganic phosphate generated by the hydrolysis of ATP to ADP was monitored by measuring an increase in absorbance at 360 nm.
(§2) The ATPase assays were performed using the EnzChek Phosphate Assay Kit (Invitrogen, item # E6646). The reactions were carried out on 1.0 µM of MORC4 His-ATPase or ATPaseCW (WT and mutants), in the presence and absence of 1 µM 601 DNA or 50 µM of unmodified H3 or H3K4me3 peptide (aa 1–12 of H3) in a buffer containing 50 mM Tris-HCl (pH 7.5), 150 mM NaCl, 1 mM MgCl2, 0.1 mM sodium azide, 200 µM MESG, and 1 U of PNP. In assay with the nucleosome, 0.5 µM of MORC4 ATPaseCW and 0.5 µM NCP167 (Activemotif) were used. The reaction was started by adding 2 mM ATP to the mixture at room temperature, and the release of inorganic phosphate was monitored by measuring the absorbance at 360 nm on a Nanodrop 2000c spectrophotometer (Thermo Scientific). In the presence of inorganic phosphate, produced by the hydrolysis of ATP to ADP, MESG is enzymatically converted to ribose 1-phosphate and […] by PNP, resulting in a shift in the wavelength absorbance from 330 nm for MESG to 360 nm for the product. The rate of ATP self-hydrolysis was measured in parallel. Error was calculated as the S.D. of at least three separate experiments (two in Fig. 4j).

Experiment [2] concerns the target T1, MORC4 (Homo sapiens, UniProt Q8TE76).
T1 construct: the ATPaseCW cassette (aa 29–486) of human MORC4 (Q8TE76); GST (cleaved yes); made in house; host or cells: E. coli Rosetta2 (DE3) pLysS or BL21 (DE3) RIL
T1 sequence (Q8TE76 1-937): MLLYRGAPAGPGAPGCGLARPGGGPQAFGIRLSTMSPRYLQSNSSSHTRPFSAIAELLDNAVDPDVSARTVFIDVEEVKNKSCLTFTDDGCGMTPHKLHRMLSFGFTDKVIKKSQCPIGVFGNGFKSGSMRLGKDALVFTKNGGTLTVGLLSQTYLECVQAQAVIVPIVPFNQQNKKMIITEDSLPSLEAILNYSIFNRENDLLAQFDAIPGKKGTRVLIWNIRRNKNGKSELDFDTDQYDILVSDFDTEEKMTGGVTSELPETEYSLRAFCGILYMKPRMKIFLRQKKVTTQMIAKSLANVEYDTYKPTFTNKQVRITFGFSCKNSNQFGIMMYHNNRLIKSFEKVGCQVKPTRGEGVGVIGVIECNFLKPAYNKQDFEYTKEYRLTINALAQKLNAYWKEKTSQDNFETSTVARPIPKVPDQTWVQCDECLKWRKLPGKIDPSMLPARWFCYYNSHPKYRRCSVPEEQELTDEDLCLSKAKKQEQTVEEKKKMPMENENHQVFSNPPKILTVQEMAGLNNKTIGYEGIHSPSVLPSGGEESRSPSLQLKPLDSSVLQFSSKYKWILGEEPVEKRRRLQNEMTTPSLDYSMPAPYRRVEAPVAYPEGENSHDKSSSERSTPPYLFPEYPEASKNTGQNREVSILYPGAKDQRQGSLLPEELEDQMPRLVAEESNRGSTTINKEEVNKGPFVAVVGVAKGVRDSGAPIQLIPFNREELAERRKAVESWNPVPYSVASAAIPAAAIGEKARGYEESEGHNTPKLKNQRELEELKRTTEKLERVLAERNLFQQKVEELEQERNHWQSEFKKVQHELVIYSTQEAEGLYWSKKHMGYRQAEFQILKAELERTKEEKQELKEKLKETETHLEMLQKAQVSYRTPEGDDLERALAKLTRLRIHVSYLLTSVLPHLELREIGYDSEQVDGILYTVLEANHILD
Described as above. Format: biochemical. Also noted: Rate of ATP hydrolysis: unit not given here. The following applies: Supp. Fig. 1. The protocol:
as §1, §2

B1: ATPaseCW: ATPaseCW cassette (aa 29–486) of human MORC4 (Q8TE76) (protein)
chain: GIRLSTMSPRYLQSNSSSHTRPFSAIAELLDNAVDPDVSARTVFIDVEEVKNKSCLTFTDDGCGMTPHKLHRMLSFGFTDKVIKKSQCPIGVFGNGFKSGSMRLGKDALVFTKNGGTLTVGLLSQTYLECVQAQAVIVPIVPFNQQNKKMIITEDSLPSLEAILNYSIFNRENDLLAQFDAIPGKKGTRVLIWNIRRNKNGKSELDFDTDQYDILVSDFDTEEKMTGGVTSELPETEYSLRAFCGILYMKPRMKIFLRQKKVTTQMIAKSLANVEYDTYKPTFTNKQVRITFGFSCKNSNQFGIMMYHNNRLIKSFEKVGCQVKPTRGEGVGVIGVIECNFLKPAYNKQDFEYTKEYRLTINALAQKLNAYWKEKTSQDNFETSTVARPIPKVPDQTWVQCDECLKWRKLPGKIDPSMLPARWFCYYNSHPKYRRCSVPEEQELTDEDLCLSKAKKQE
modifications: left off: GST, end not stated, cleaved
B1: the “Rate of ATP hydrolysis” value in experiment [1] (+ H3K4me3 + 601 DNA, Fig. 1c, mean of 3) was 0.3353; in experiment [1] (+ H3K4me3 + 601 DNA, Fig. 1c, replicate 1) it was 0.3507; in experiment [1] (+ H3K4me3 + 601 DNA, Fig. 1c, replicate 2), 0.3597; in experiment [1] (+ H3K4me3 + 601 DNA, Fig. 1c, replicate 3), 0.2954; in experiment [1] (+ H3un + 601 DNA, Fig. 1c, mean of 3) it was 0.3154; in experiment [1] (+ H3un + 601 DNA, Fig. 1c, replicate 1), 0.2842. For the same molecule, the “Rate of ATP hydrolysis” value in experiment [1] (+ H3un + 601 DNA, Fig. 1c, replicate 2) was determined as 0.3368; in experiment [1] (+ H3un + 601 DNA, Fig. 1c, replicate 3) it was 0.3251; in experiment [1] (no DNA, no peptide, 1.0 µM protein, 2 mM ATP, pH 7.5, room temperature, absorbance 360 nm, Fig. 1b,c, mean), 0.09309; in experiment [1] (no DNA, no peptide, Fig. 1b,c, replicate 1) it was 0.08409; in experiment [1] (no DNA, no peptide, Fig. 1b,c, replicate 2) it was 0.08589; in experiment [1] (no DNA, no peptide, Fig. 1b,c, replicate 3), 0.1093. Moreover, the “Rate of ATP hydrolysis” value in experiment [2] (0.5 µM MORC4 ATPaseCW + 0.5 µM NCP167, mean of 3) came out at 0.468; in experiment [2] (0.5 µM MORC4 ATPaseCW + 0.5 µM NCP167, replicate 1), 0.5696; in experiment [2] (0.5 µM MORC4 ATPaseCW + 0.5 µM NCP167, replicate 2), 0.408; in experiment [2] (0.5 µM MORC4 ATPaseCW + 0.5 µM NCP167, replicate 3), 0.4265; in experiment [2] (0.5 µM MORC4 ATPaseCW, without NCP167, mean of 3) it was 0.2339; in experiment [2] (0.5 µM MORC4 ATPaseCW, without NCP167, replicate 1) it was 0.309. The “Rate of ATP hydrolysis” value in experiment [2] (0.5 µM MORC4 ATPaseCW, without NCP167, replicate 2) was determined as 0.1285; in experiment [2] (0.5 µM MORC4 ATPaseCW, without NCP167, replicate 3), 0.2641.
